In IntAct's records for PubMed 22000412:

Biological target: bub1b_human BUB1B (UniProt O60566)
Sequence (O60566 whole entry): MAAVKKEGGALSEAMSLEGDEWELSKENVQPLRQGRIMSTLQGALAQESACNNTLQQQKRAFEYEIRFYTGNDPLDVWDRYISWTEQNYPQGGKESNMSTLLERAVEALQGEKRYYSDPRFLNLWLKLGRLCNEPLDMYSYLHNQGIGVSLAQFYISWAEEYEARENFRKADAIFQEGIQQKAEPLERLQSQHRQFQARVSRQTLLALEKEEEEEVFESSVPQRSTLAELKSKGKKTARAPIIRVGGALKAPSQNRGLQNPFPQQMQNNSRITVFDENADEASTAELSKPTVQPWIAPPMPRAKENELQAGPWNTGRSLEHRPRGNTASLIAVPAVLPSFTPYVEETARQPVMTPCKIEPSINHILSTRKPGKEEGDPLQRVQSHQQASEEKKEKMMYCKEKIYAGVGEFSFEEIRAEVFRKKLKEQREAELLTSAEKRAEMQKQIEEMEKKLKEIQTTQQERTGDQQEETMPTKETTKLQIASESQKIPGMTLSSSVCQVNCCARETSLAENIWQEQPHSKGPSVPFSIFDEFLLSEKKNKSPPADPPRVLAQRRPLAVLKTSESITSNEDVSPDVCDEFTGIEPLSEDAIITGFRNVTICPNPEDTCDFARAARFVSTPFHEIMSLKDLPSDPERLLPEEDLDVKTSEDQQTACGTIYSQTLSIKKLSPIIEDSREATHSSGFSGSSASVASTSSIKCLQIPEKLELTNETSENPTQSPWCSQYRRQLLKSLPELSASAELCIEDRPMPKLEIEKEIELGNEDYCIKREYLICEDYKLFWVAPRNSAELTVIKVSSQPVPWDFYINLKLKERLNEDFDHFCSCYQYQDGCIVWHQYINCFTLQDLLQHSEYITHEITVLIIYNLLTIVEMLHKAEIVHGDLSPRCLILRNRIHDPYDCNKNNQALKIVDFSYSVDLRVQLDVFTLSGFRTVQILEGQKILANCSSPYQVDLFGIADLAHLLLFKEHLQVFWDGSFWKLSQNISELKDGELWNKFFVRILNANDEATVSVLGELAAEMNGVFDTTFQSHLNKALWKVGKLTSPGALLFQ

effect of a mutation on the interaction | Substance
disrupting interaction | Outer kinetochore KNL1 complex subunit KNL1 (Homo sapiens), Q8NG31-2 F215A;F218A
disrupting interaction | Outer kinetochore KNL1 complex subunit KNL1 (Homo sapiens), Q8NG31-2 F215A;I219A
disrupting interaction | Outer kinetochore KNL1 complex subunit KNL1 (Homo sapiens), Q8NG31-2 I213A;F215A;F218A
